Where “and” joins values, the source holds several entries; their conditions need not be identical. Equal entries are not always repeated.
Test system: Bacillus subtilis DB104 (SP-AmyQ fusion secretion)
Test: AmyQ secretion efficiency, weighted average sort bin (1 = best secretion, 10 = worst) (bin number (weighted average, 1-10)); higher = lower secretion efficiency
Procedure, shortened: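 Occupied alginate beads were sorted by large-particle flow cytometry into 10 equally populated bins according to green/red fluorescence ratio. Each bead (~65 nL) held fluorescein-starch and about 0.3 cells of a B. subtilis DB104 library expressing mature AmyQ fused to designed signal peptides from the amyE locus, and beads were grown about 13 h at room temperature and stained with nile red before sorting. Bin amplicons were Illumina-sequenced, and the secretion score is the read-frequency-weighted average bin number, normalised to beads per bin, excluding low-abundance sequences.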

Sequence	AmyQ secretion efficiency
MRKKKRHSRLIVLLFFSFFGVQPIHAKKQ	7.01
MKKKQQHSTRRKLIVLLFFSFFGVQPIHAKKQ	5.23
MRSKKLWISLLFALTLIFTMAFSNMSAQRAGK	6.17
MTSAFILSAAAAVGLFTFGGVQQASAKEL	2.86
MKRLLSTLLIGIMLLEQQPKAFAKQD	1.64
MKKMLGKLLITAGILVFFAVVVKDVFAAGL	7.15
MRRKKKKVVSALSISALALSVSGVASAHEI	3.9
MNFKKTGVSALSISALALSVSGVASAHEI	3.9
MKWMCSICCAAVLLAGGAKQAEAV	2.68
MKLAKRVSALTPSTTLAITNKAKEL	7.12
MKKRLIAPMLLSAASLAFFAMSGSAQVAAY	5.79
MKKRLIAPMLLSAASLAFFAMSGSAQEAAY	6.78
MRFTKVVGFLSVLGLAAVFPLTAQREKA	5.37
MLCVMMLLFSAIASAQAKDQ	6.18
MRPVFPLILSAVLFLSCFFGARQTEESASKR	7.33
MMIKQCVICLSLLVFGTTKAHAEET	2.63
MKKKLAAGLTASAIVGTTLVVTPAECATI	4.47
MKKGIIRFLLVSFVLFFALSTGSTGVQAAPA	1.88
MKTKTLFIFSAILTLSIFAPNEVFAQTA	1.58
MKKSQYFIVFICFFVLFSVHPIAAACADS	4.69
MKRKSCKLVVSVTLFFSFLTIGPLAHAQNS	1.46
MFMKSGMEQAVSVLLLLSRLPVQASLTSE	9.96
MTKLKMLSMLTVMIASLFIFSSQALFVQY	7.31
MKKWMAGLFLAAAVLLCLMVPQQGQGASS	6.52

Sequence	AmyQ secretion efficiency
MPIKKKVMMCLAVTLVFGSMDEETLTNSGGFKE	6.94
MKKRRKSFVAVAALSTTAFGAHASAKEI	6.63
MKKWMITIAMLILAGIALFVFISPPPFFTAVPSTVLKSHKT	6.23
MFNRLFRVCFLAALIMAFTLPNSVYFQKP	7.24
MKRLLVSLRVWMVFLMNWVTPDRKTAASAVY	6.03
MGSLTKTSLLLAGLCTAAQMVFVTHASAEES	4.02
MPYLKRVLLLLVTGLFMSLFAVTATASCQTG	1.26
MGLGKKLSVAVAASFMSLSISLPVQAAEG	1.35
MRNLTKTSLLLAGLCTAAQMVFVTHVSAEES	3.09
MKLKSKLLLMCLALLIVFVGATTIANAPTH	8.04
MRSYIKVLTMCFLGLILFVPTFLADNS	5.95
MKKLIMALVILGALKKRKKKISADSS	8.07
MKRIRIPMTLALGAALTIAPLSFASNEEN	7.9
MKKVKKRKRKCLSLILSVLAAPPSGAKAESV	7.36
MKKTIMSFVAVAALSTTAFRRRKKKHASAKEI	6.72
MKSRTIWTIILGALLVCCIAVAYTLTKSQAGASSS	5.1 and 5.65
MKRLLVSLRVWMVFLMNWVTPDRKTNAAAVY	6.68
MLKKIALTLCPAIVGSLLFFTAPASSHVS	4.06
MTKLKMLSMLTVMIASLFIFSSQALSVQY	2.56
MTKLKMLSMLTVMIASLFIFSSQQLAVQY	6.53
MRPVFPLILSAVLFLSCFFGARQTEASSSKR	3.03
MKKQIITATTAVVLGSTLFAGAQSAQSI	4.07
MKKKIVAGLAVSAVVGSSMAAEAKTI	5.65
MRSYIKVLTMCFLGLILFVPTTLADNS	1.67

Sequence	AmyQ secretion efficiency
MTKKAWFLPLVCVLLISGWLAPAASASAQED	2.97
MTKRGIQAFAGGIILATAVLAAVFYLTDEDQAAAR	4.37
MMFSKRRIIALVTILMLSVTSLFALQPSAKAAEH	1.68
MRMLWRMMISLALCGLALTLAPCAQAAEP	1.79
MILRKVLTGSVLSLGLLVSASPAFATSP	1.73
MKSKWMSGLLLVAVGFSFTQVMVHGGET	7.46
MKKAFILSAAAAVGLFTFGGVQQASEKEL	6.66
MFKKPTISLLIIFLLASAVLAKPIEAHTV	2.38
MKRIRIPMTLALGAALTIAPLSFFSAEEN	6.31
MKSKGSIMACLILFSFTITTFINTETISNFSN	7.44
MKLSVKIAGVLTVAAAAMIAIATTAKMYATAKGN	5.63
MKKTIMSFVAVAALSTTAFGAHASRKEI	4.66
MKKRLIGFLVLVPALIMSGITLDEANKK	4.52
MKKIMSAFVGMVLLTIFCFSPQASAEED	2.74
MKKVMLATALFLPAGANAADL	7.34
MFNRLFRVCFLAALIMAFTLPNSPYAQKP	7.43
MKLSVKIAGVLTVAAAAMTAKMYATVKGN	6.87
MKLAKRVSALTPSTTLAIVAKAKEL	6.85
MRFTKFMSIVVGFLSVLGLAAVFPLTAQAEKA	2.72
MRKKRVITCVMAASLTLGSLLPAGYASAASD	1.13
MLKRTSFVSSLFISSAVLLSILLPSGQVHAQSA	1.69
MTKLKMLSMLTVMIASLFIFSSQALLVQY	6.07
MGLGKKLSVAVAASFMSLSISLPGVQARKR	6.96
MFNRLFRVCFLAALIMTLPNSVYAQKP	2.44

Sequence	AmyQ secretion efficiency
MKKRLIAPMLLSAASLAFFARRKRKKAQAAAY	7.44
MKRKRKRIMIFLTSFMLLAMTGQTALAKDV	3.59
MPYLKRMINFNNVLLLLVTGLFMSLFAVTATASAQTG	1.05
MFRMIVRMTLPLLIVCLAFSSFSASARAASE	1.61
MKKWRGGSQSGAIAIVLFMYTKGEAKAAGM	6.49
MRNLTKTSLLLAGLCTAAEEEEEDHASAEES	6.56
MKKARRVLLSLGLVFGFSYGAGHVAEAKTK	2.43
MKRRKVLTGSVLSLGLLVSASPAFATSP	2.61
MYKKFVPRTQYSRLFFVSFEMMENPHALDY	7.24
MKSKWMSGLLLVAVGFSFTQVMAHAGET	7.06
MKRCKRLIVCSLAAILLLIPSVSFAADS	3.14
MKWMCSICCAAVLLAGAAAAQAEAV	4.13
MKKVKKRRIICLSLILSVLAAPPSGAKAESV	1.81
MAIIIAIIAAVIVIAALITFNVNNASPG	7.54
MLKKKWMVGLLAGCLAAGGFSYNAFETEN	6.72
MRMLWRSLALCGLALTLAPCAQLAEP	6.58
MLKKKWMVGLLAGCLAAGEEPYNAFATEN	4.04
MMIKQCKRCKKRKVFGTTAAHAEET	7.72
MKTKTLFIFSAILTLSIFASTITLSAFAPNETFAQTA	3.01
MTTKFTALAVFLLCFMPAAKIKRKHTQASLL	7.32
MITTIVITCVMAASLTLGSLLPAGYASAKED	4.06
MHLIRAAGAVCLAVVLIAGCRFNEDQHQFFAEGENT	4.63
MKKKNSISSLNMLAAGLTASAIVGTTLVVTPAEAATI	2.17
